Results from patent US20230106715A1 (BIOSION, published 2023).
Positions count from the first letter of the chain named. Like-named read-outs stand apart in the source and are kept apart here. Blank lines part the entries; values can stand above or below the binder they belong to.

Experiments:
[1] = biological target: T1, recombinant human Siglec15-his protein (human, UniProt Q6ZMC9 20-263); test: capture ELISA, captured antibody, biotin-labeled human Siglec15-his in solution
T1 construct: In house made; Biotin-labeled in the capture ELISA
T1 sequence: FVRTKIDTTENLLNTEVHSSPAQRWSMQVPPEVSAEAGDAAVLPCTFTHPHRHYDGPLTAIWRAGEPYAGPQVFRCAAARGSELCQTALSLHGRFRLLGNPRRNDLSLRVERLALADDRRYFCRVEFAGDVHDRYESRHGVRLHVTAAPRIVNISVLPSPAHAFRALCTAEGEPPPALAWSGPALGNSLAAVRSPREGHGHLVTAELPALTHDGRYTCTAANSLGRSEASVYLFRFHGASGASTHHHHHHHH
Method: (§1) Briefly, 96-well plates were coated with 100 μl of 2 μg/ml AffiniPure Goat Anti-Human IgG F(ab′)₂ fragment specific (Jackson Immuno Research, Cat #109-005-097) in PBS for 2 hours at 37° C. Plates were washed once with wash buffer (PBS+0.05% v/v Tween-20, PBST) and then blocked with 200 μl blocking buffer (5% w/v non-fatty milk in PBST) overnight at 4° C. Plates were washed 4 times and respectively incubated with 100 μl serially diluted anti-Siglec15 antibodies of the disclosure, the benchmark and hIgG (human immunoglobulin (pH4) for intravenous injection, Hualan Biological Engineering Inc.), 5-fold dilution in 2.5% w/v non-fatty milk in PBST starting at 66.7 nM, for 40 minutes at 37° C., and then washed 4 times again. Plates containing captured antibodies were incubated with 100 μl biotin-labeled human Siglec15-his protein (in house made with SEQ ID NO: 20, 145 ng/ml in 2.5% w/v non-fatty milk in PBST) for 40 minutes at 37° C., washed 4 times, and incubated with streptavidin conjugated HRP (1:10000 dilution in PBST, Jackson Immuno Research, Cat #016-030-084, 100 μl/well) for 40 minutes at 37° C. After a final wash, plates were incubated with 100 μl/well ELISA substrate TMB (Innoreagents, Cat #TMB-S-002). The reaction was stopped in 4 minutes at room temperature with 50 μl/well 1M H₂SO₄, and the absorbance of each well was read on a microplate reader using dual wavelength mode with 450 nm for TMB and 630 nm as the reference wavelength, then the OD (450-630) values were plotted against antibody concentration. Data was analyzed using Graphpad Prism software and EC₅₀ values were reported.

[2] = biological target: T2, mouse Siglec15-his protein (mouse); test: indirect ELISA on coated mouse Siglec15-his
T2 construct: In house made
T2 chain: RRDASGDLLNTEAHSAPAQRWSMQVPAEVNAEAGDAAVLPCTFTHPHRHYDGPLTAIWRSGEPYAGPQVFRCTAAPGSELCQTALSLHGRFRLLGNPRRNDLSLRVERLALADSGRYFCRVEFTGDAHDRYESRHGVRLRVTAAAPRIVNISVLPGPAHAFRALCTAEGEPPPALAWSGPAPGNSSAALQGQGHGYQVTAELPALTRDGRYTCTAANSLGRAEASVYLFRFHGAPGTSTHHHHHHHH
Method: (§2) The anti-Siglec15 antibodies' cross-reactions to cynomolgus or mouse Siglec15 proteins were measured. Briefly, 96-well micro plates were coated with 100 μl of 2 μg/ml cynomolgus Siglec15-his protein (in house made with SEQ ID NO: 21), or 2 μg/ml mouse Siglec15-his protein (in house made with SEQ ID NO: 22) in carbonate/bicarbonate buffer (pH 9.6) for 2 hours at 37° C. ELISA plates were washed once with wash buffer (PBS+0.05% v/v Tween-20, PBST) and then blocked with 200 μl/well blocking buffer (5% w/v non-fatty milk in PBST) overnight at 4° C. Plates were washed 4 times and incubated with 100 μl serially diluted anti-Siglec15 antibodies of the disclosure or controls (starting at 66.7 nM, 5-fold serial dilution in PBST with 2.5% w/v non-fatty milk) for 40 minutes at 37° C. ELISA plates were washed 4 times again and incubated with Peroxidase AffiniPure Goat Anti-Human IgG, F(ab)₂ fragment specific (1:5000 dilution in PBST buffer, Jackson Immunoresearch, Cat #109-035-097, 100 μl/well) for 40 minutes at 37° C. After a final wash, plates were incubated with 100 μl/well TMB (Innoreagents, Cat #TMB-S-002). The reaction was stopped 4 minutes later at room temperature with 50 μl 1M H₂SO₄, and the absorbance of each well was read on a microplate reader using dual wavelength mode with 450 nm for TMB and 630 nm as the reference wavelength, then the OD (450-630) values were plotted against antibody concentration. Data was analyzed using Graphpad Prism software and EC₅₀ values were reported.

[3] = biological target: T3, cynomolgus monkey Siglec15-his protein (cynomolgus monkey); test: indirect ELISA on coated cynomolgus Siglec15-his
T3 construct: In house made; also called Cynomolgus Siglec15-his; cynomolgus Siglec15
T3 chain: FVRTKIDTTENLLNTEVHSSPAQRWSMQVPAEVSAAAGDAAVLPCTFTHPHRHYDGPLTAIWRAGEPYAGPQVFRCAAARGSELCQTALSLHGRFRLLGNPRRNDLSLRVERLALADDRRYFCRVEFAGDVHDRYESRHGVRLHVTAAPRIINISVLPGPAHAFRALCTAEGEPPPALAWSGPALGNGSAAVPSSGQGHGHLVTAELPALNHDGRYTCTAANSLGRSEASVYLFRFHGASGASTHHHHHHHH
Method: as §2

[4] = biological target: T1, recombinant human Siglec15-his protein; test: capture ELISA, captured antibody, biotin-labeled human Siglec15-his in solution; remark: listed apart in the source
Method: as §1

[5] = biological target: T4, human Siglec15-Fc protein (human); test: competitive ELISA: coated human Siglec15-Fc, blocked ligand biotin-labeled human LRRC4C-Fc
T4 construct: In house made; also called recombinant human Siglec15 protein with human IgG1 Fc at the C-terminus
Method: Serially diluted anti-Siglec15 antibodies or the controls (starting at 66.67 nM with a 5-fold serial dilution) in PBST with 2.5% w/v non-fatty milk were added to the Siglec15-Fc bound plates, 100 μl per well, and incubated with the human Siglec15-Fc protein at 37° C. for 40 minutes. Plates were washed 4 times again using wash buffer, then added and incubated for 40 minutes at 37° C. with 100 μl/well 290 ng/ml biotin-labeled human LRRC4C-Fc protein (prepared in-house with SEQ ID NO: 23). Plates were washed again using wash buffer. Thereafter, the plates were added with 100 μl/well streptavidin conjugated HRP (1:5000 dilution in PBST buffer, Jackson Immunoresearch, Cat #016-030-084) and incubated for 40 minutes at 37° C. Plates were washed again using wash buffer. Finally, TMB was added and the reaction was stopped using 1M H₂SO₄, and the absorbance of each well was read on a microplate reader using dual wavelength mode with 450 nm for TMB and 630 nm as the reference wavelength, then the OD (450-630) values were plotted against antibody concentration. Data was analyzed using Graphpad Prism software and IC₅₀ values were reported.

T4 sequence (chain, as listed by the source limits assumed): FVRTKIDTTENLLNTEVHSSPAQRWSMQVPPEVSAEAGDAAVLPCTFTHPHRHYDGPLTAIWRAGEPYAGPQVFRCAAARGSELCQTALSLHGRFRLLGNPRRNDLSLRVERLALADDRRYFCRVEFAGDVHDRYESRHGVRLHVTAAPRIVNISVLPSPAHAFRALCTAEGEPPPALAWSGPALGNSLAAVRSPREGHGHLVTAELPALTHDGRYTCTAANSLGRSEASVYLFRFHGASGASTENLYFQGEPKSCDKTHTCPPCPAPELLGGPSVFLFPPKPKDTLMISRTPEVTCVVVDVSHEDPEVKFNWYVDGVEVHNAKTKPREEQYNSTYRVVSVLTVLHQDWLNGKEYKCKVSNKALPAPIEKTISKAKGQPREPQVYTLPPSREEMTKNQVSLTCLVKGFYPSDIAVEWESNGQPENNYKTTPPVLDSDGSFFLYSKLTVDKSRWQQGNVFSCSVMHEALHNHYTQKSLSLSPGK

EC50 [1]: 1.64 nM
EC50 [2]: 0.361 nM
EC50 [3]: 0.201 nM
EC50 [4]: 2.93 nM
IC50 [5]: 0.674 nM
B1: anti-Siglec15 benchmark (ch5G12) (antibody, human IgG1, kappa, V domains shown)
VH: QVQLQQPGAELVKPGASVKMSCKASGYTFTSYWITWVIQRPGQGLEWIGDIYCGSDTMHYNEKFKNKATLTVDTSSSTAYMQLSSLTSEDSAVYYCARWWDYGSSYDYFDYWGQGTTLTVSS
VL: DIKMTQSPSSMYASLGERVTITCKASQDINSYLSWFQQKPGKSPKTLIYRANRLVDGVPSRFSGSGSGQDYSLTISSLEYEDMGIYYCLQYDEFPYTFGGGTKLEIKR
notes: ch5G12 (US 20190202912A1); also called BM; Siglec15-ch5G9

EC50 [2]: 0.329 nM
EC50 [4]: 0.252 nM
B2: A1E10G7H9 (antibody, V domains shown)
VH: QVQLQESGPGLVKPSGTLSLTCAVSGGSISSSNWWHWVRQPPGKGLEWIGEIYHSGNTNYKPSLKSRVTISVDKSKNQFSLKLSSVTAADTAVYYCARDEGNGWSNAFDIWGQGTMVTVSS
VL: ENVLTQSPGTLSLSPGERVTLSCRASQSVSSSYLAWYQQKPGQAPRFLIYGASGGATGIPDRFSGSGSGTDFTLTISRLEPEDFAVYYCQQYGSSPITFGQGTRLEIK
notes: Fully human antibody from transgenic mouse hybridoma

EC50 [2]: 0.26 nM
EC50 [4]: 0.232 nM
IC50 [5]: 0.394 nM
B3: A2A5C7E8 (antibody, V domains shown)
VH: EVQLVQSGAEVKKPGESLRISCKGSGYSFTTYWISWVRQMPGKGLEWMGLIDPSDSYTNYSPSFQGHVTISTDKSISTAYLQWSSLKASDTAMYYCARGGYYGSEEDYWGQGTLVTVSS
VL: EIVLTQSPGTLSLSPGERATLSCRASQSVSSSRLAWFQQKSGQAPRLLIFDASSRATGIPDRFSGSGSGTDFTLTISRLEPEDFAVYYCQQYGSSPRTFGQGTKVEFK
notes: Fully human antibody from transgenic mouse hybridoma; also called A2A5C7E8-1

IC50 [5]: 0.446 nM
B4: A2A5C7E8-2 (antibody, human IgG1, kappa, V domains shown)
VH: B3 VH with D55E
VL: EIVLTQSPGTLSLSPGERATLSCRASQSVSSSRLAWFQQKSGQAPRLLIFDASSRATGIPDRFSGSGSGTDFTLTISRLEPEDFAVYYCQQYGSSPRTFGQGTKVEFKR
notes: Variant of A2A5C7E8 modified in VH CDR2 (X1 = E)

IC50 [5]: 0.546 nM
B5: A2A5C7E8-3 (antibody, human IgG1, kappa, V domains shown)
VH: B3 VH with Q65K
VL: B4 VL
notes: Variant of A2A5C7E8 modified in VH CDR2 (X2 = K)

EC50 [1]: 0.101 nM
EC50 [3]: 0.197 nM
B6: B2D7H7A3C1 (antibody, V domains shown)
VH: QVQLQQSGAELVRPGTSVQMSCKAAGYTFTNYWIGWVKQRPGHGLEWVGDIHPGINYTNNNEKFRGKATLTADTSSNTAYMQLRGLTSDDSAIYYCARVDYDYDGSYIMDYWGQGTSVTVSS
VL: QIVLSQSPALLSASPGEKVTMTCRASSSVSYMYWYQQKPGSSPKPWIYATSNLTSGVPARFSGSGSGTSYSLTISRVEAEDAATYFCQQWNSKPWTFGGGSKLEIR
notes: Mouse monoclonal antibody from hybridoma; also called mouse B2D7H7A3C1

EC50 [1]: 0.0859 nM
EC50 [3]: 0.146 nM
B7: B2G12H3E8 (antibody, V domains shown)
VH: B6 VH with Q5K, A25V, N77S
VL: B6 VL
notes: Mouse monoclonal antibody from hybridoma; also called mouse B2G12H3E8

EC50 [1]: 0.0937 nM
EC50 [3]: 0.179 nM
B8: B2H2H1H7 (antibody, V domains shown)
VH: B6 VH with N77S
VL: B6 VL with V3I, K102R
notes: Mouse monoclonal antibody from hybridoma; also called mouse B2H2H1H7; B2H2H1A7
